The target of experiment [1] is Nucleolysin TIA-1 (endogenous mouse TIA1) (mouse) (UniProt P52912). Put plainly: TIA1 IP-MS, WT1 cortex.
The target is the same in experiment [2]. Kind of experiment: TIA1 IP-MS, WT2 cortex.
Experiment [3] has the same target. Kind of experiment: TIA1 IP-MS, WT3 cortex.
Experiment [4] shares this target. Kind of experiment: TIA1 IP-MS, tau KO 1 cortex.
The target is the same in experiment [5]. Put plainly: TIA1 IP-MS, tau KO 2 cortex.
The target is the same in experiment [6]. Kind of experiment: TIA1 IP-MS, tau KO 3 cortex.

Chain of UniProt P52912 (P52912 whole entry): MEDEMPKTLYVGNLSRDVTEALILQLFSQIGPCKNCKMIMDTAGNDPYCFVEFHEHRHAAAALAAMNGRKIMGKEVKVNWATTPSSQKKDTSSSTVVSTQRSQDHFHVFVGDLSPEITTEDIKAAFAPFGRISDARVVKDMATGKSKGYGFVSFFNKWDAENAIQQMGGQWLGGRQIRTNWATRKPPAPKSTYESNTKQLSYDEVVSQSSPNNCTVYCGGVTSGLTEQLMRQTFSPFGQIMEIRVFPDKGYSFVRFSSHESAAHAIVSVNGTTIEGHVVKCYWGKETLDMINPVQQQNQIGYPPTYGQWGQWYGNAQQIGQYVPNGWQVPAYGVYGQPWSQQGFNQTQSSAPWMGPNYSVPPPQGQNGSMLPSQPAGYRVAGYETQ

On to “Isoform 2 of MICOS complex subunit Mic60 (from UniProt Q8CAQ8 34-746)”, for which the total ion current (normalized to TIA1 = 1000) in experiment [1] was 0; in experiment [2] it was 64.7; in experiment [3] it was 37.6; in experiment [4], 0; in experiment [5], 59; in experiment [6], 0.

In the case of “Isoform 2 of Focal adhesion kinase 1 (from UniProt P34152 2-1083)”, the total ion current (normalized to TIA1 = 1000) is 0 in experiment [1]; 0 in experiment [2]; 84.3 in experiment [3]; 0 in experiment [4]; 130 in experiment [5]; 0 in experiment [6].

Regarding “Carbonic anhydrase 2 (from UniProt P00920 2-260)”, the total ion current (normalized to TIA1 = 1000) in experiment [1] is 0; in experiment [2], 38.6; in experiment [3], 50.1; in experiment [4], 0; in experiment [5], 58.4; in experiment [6] it was 0.

Regarding “Leucine-rich repeat-containing protein 59 (from UniProt Q922Q8 1-307)”, the total ion current (normalized to TIA1 = 1000) in experiment [1] is 0; in experiment [2], 408; in experiment [3] it was 0; in experiment [4], 10.6; in experiment [5], 0; in experiment [6], 0.

In the case of “Rabphilin-3A (from UniProt P47708 1-681)”, the total ion current (normalized to TIA1 = 1000) in experiment [1] is 0; in experiment [2] it was 40.4; in experiment [3] it was 0; in experiment [4], 17; in experiment [5] it was 0; in experiment [6], 0.

On to “Band 4.1-like protein 2 (from UniProt O70318 2-988)”, for which the total ion current (normalized to TIA1 = 1000) worked out at 16.7 in experiment [1]; 0 in experiment [2]; 0 in experiment [3]; 25.8 in experiment [4]; 0 in experiment [5]; 0 in experiment [6].

As to “NADH dehydrogenase [ubiquinone] iron-sulfur protein 2, mitochondrial (from UniProt Q91WD5 34-463)”, the total ion current (normalized to TIA1 = 1000) in experiment [1] stood at 0; in experiment [2], 137; in experiment [3] it was 0; in experiment [4], 0; in experiment [5], 27; in experiment [6] it was 0.

Consider “Protein disulfide-isomerase A3 (from UniProt P27773 25-505)”, for which the total ion current (normalized to TIA1 = 1000) in experiment [1] stood at 0; in experiment [2], 69.2; in experiment [3], 13.8; in experiment [4] it was 0; in experiment [5], 36; in experiment [6] it was 0.

For the substance “Eukaryotic initiation factor 4A-I (from UniProt P60843 2-406)”, the total ion current (normalized to TIA1 = 1000) in experiment [1] amounted to 0; in experiment [2], 150; in experiment [3], 76.1; in experiment [4] it was 0; in experiment [5] it was 121; in experiment [6], 0.

With “Phosphatidylinositol 5-phosphate 4-kinase type-2 gamma (from UniProt Q91XU3 2-421)”, the total ion current (normalized to TIA1 = 1000) is 0 in experiment [1]; 36.6 in experiment [2]; 0 in experiment [3]; 0 in experiment [4]; 0 in experiment [5]; 0 in experiment [6].

On to “Catenin beta-1 (from UniProt Q02248 2-781)”, for which the total ion current (normalized to TIA1 = 1000) in experiment [1] was determined as 9.46; in experiment [2] it was 0; in experiment [3], 0; in experiment [4], 123; in experiment [5], 0; in experiment [6], 0.

As to “NADH dehydrogenase [ubiquinone] iron-sulfur protein 3, mitochondrial (from UniProt Q9DCT2 36-263)”, the total ion current (normalized to TIA1 = 1000) was found to be 0 in experiment [1]; 366 in experiment [2]; 60.8 in experiment [3]; 0 in experiment [4]; 36.9 in experiment [5]; 0 in experiment [6].

Regarding “Nicotinamide phosphoribosyltransferase (from UniProt Q99KQ4 1-491)”, the total ion current (normalized to TIA1 = 1000) in experiment [1] was found to be 0; in experiment [2], 0; in experiment [3], 0; in experiment [4] it was 0; in experiment [5] it was 0; in experiment [6], 1570.

Take “Isoform 2 of C-terminal-binding protein 1 (from UniProt O88712 1-430)”: the total ion current (normalized to TIA1 = 1000) came to 0 in experiment [1]; 65.7 in experiment [2]; 49.3 in experiment [3]; 0 in experiment [4]; 26.6 in experiment [5]; 0 in experiment [6].

Take “Tripartite motif-containing protein 2 (from UniProt Q9ESN6 1-744)”: the total ion current (normalized to TIA1 = 1000) in experiment [1] stood at 0; in experiment [2], 106; in experiment [3] it was 0; in experiment [4], 0; in experiment [5], 0; in experiment [6], 0.

For “Isovaleryl-CoA dehydrogenase, mitochondrial (from UniProt Q9JHI5 31-424)”, the total ion current (normalized to TIA1 = 1000) in experiment [1] was determined as 7.28; in experiment [2] it was 0; in experiment [3], 0; in experiment [4] it was 5.22; in experiment [5], 0; in experiment [6] it was 0.

In the case of “Polyadenylate-binding protein 1 (from UniProt P29341 1-636)”, the total ion current (normalized to TIA1 = 1000) in experiment [1] came to 0; in experiment [2], 50.7; in experiment [3], 0; in experiment [4], 0; in experiment [5], 86.4; in experiment [6], 0.

As for “Isoform 2 of Alpha-adducin (from UniProt Q9QYC0 1-632)”, the total ion current (normalized to TIA1 = 1000) came out at 0 in experiment [1]; 121 in experiment [2]; 0 in experiment [3]; 0 in experiment [4]; 0 in experiment [5]; 0 in experiment [6].

In the case of “Pyruvate dehydrogenase E1 component subunit beta, mitochondrial (from UniProt Q9D051 31-359)”, the total ion current (normalized to TIA1 = 1000) in experiment [1] was 0; in experiment [2], 60.4; in experiment [3], 95.5; in experiment [4], 0; in experiment [5] it was 51; in experiment [6] it was 0.

In the case of “Alpha-actinin-4 (from UniProt P57780 1-912)”, the total ion current (normalized to TIA1 = 1000) is 0 in experiment [1]; 77 in experiment [2]; 14.5 in experiment [3]; 0 in experiment [4]; 28.8 in experiment [5]; 0 in experiment [6].

On to “Isoform 2 of AP-2 complex subunit beta (from UniProt Q9DBG3 2-951)”, for which the total ion current (normalized to TIA1 = 1000) was 0 in experiment [1]; 105 in experiment [2]; 67.8 in experiment [3]; 0 in experiment [4]; 102 in experiment [5]; 0 in experiment [6].

On to “Isoform 2 of Protein-L-isoaspartate(D-aspartate)-O-methyltransferase (from UniProt P23506 2-228)”, for which the total ion current (normalized to TIA1 = 1000) is 0 in experiment [1]; 98.7 in experiment [2]; 8.56 in experiment [3]; 0 in experiment [4]; 91.6 in experiment [5]; 0 in experiment [6].

Source of the values: US20190142860A1, “NUCLEIC ACID BASED TIA-1 INHIBITORS” (Aquinnah Pharmaceuticals, Inc., priority 2015, published 2019).
